According to the supplement of paper PMC10065799, “High-throughput profiling of sequence recognition by tyrosine kinases and SH2 domains using bacterial peptide display” (eLife, 2023):

Key:
AncSZ = test: phosphorylation enrichment, bacterial display (enrichment ratio); higher = better substrate or ligand; peptides without Tyr show the background
EPHB1 = EPHB1 (UniProt P54762); test: as above
EPHB2 = EPHB2 (UniProt P29323); test: as above
FGFR1 = FGFR1 (UniProt P11362); test: as above
FGFR3 = FGFR3 (UniProt P22607); test: as above
Fer (mouse) = test: as above
Fes = Fes (UniProt P07332); test: as above
Sequence of Fes (P07332 whole entry, looked up): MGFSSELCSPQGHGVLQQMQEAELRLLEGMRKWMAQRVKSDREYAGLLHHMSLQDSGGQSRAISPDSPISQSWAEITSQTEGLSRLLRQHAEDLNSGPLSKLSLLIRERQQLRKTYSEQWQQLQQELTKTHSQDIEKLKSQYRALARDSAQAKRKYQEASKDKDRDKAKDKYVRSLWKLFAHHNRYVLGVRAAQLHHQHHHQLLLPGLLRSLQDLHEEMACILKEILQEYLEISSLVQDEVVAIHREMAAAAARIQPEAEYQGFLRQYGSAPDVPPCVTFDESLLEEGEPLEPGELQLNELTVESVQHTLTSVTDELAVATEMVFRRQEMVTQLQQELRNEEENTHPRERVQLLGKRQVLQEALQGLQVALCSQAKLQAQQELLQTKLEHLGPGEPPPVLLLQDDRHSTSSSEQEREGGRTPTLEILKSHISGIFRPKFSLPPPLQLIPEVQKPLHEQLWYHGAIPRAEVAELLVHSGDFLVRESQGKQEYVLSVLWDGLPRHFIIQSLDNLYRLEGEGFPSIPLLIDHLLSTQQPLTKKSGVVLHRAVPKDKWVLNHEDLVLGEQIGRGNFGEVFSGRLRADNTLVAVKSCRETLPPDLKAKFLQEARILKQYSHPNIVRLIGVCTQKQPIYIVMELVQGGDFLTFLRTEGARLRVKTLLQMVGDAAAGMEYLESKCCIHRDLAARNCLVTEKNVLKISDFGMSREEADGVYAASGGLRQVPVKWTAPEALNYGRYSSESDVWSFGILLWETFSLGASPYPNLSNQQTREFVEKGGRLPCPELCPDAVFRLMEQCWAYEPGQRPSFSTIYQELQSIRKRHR

Fyn = Fyn (UniProt P06241); test: as above
Sequence of Fyn (P06241 whole entry, looked up): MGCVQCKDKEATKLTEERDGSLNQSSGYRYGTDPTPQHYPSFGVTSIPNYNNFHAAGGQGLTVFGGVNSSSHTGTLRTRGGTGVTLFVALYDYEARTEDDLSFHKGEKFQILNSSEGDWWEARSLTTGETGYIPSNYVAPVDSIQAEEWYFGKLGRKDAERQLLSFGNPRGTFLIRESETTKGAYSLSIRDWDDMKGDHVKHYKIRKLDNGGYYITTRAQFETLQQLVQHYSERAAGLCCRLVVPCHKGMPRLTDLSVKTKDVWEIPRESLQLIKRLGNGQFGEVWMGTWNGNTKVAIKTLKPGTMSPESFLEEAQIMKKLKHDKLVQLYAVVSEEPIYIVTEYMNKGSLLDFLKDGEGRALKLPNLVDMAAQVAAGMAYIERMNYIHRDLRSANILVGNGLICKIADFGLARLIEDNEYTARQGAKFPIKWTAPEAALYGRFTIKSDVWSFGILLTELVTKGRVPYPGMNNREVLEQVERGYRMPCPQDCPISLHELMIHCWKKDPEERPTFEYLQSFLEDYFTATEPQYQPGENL

Hck = Hck (UniProt P08631); test: as above
Sequence of Hck (P08631 whole entry, looked up): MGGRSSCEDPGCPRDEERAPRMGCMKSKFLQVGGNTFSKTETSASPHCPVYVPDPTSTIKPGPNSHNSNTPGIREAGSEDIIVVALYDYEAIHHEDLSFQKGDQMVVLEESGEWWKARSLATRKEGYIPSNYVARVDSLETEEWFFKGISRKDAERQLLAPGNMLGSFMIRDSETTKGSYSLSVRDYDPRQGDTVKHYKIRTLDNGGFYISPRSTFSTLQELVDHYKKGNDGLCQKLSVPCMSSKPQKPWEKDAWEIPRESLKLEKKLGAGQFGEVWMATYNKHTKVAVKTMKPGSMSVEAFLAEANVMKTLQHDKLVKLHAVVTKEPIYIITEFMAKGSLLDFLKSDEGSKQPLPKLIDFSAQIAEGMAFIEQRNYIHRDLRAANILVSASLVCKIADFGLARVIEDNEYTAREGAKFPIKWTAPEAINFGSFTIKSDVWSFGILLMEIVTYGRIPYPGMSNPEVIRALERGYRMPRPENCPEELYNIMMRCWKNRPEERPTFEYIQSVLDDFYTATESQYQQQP

Jak2 = Jak2 (UniProt O60674); test: as above
Sequence of Jak2 (O60674 whole entry, looked up): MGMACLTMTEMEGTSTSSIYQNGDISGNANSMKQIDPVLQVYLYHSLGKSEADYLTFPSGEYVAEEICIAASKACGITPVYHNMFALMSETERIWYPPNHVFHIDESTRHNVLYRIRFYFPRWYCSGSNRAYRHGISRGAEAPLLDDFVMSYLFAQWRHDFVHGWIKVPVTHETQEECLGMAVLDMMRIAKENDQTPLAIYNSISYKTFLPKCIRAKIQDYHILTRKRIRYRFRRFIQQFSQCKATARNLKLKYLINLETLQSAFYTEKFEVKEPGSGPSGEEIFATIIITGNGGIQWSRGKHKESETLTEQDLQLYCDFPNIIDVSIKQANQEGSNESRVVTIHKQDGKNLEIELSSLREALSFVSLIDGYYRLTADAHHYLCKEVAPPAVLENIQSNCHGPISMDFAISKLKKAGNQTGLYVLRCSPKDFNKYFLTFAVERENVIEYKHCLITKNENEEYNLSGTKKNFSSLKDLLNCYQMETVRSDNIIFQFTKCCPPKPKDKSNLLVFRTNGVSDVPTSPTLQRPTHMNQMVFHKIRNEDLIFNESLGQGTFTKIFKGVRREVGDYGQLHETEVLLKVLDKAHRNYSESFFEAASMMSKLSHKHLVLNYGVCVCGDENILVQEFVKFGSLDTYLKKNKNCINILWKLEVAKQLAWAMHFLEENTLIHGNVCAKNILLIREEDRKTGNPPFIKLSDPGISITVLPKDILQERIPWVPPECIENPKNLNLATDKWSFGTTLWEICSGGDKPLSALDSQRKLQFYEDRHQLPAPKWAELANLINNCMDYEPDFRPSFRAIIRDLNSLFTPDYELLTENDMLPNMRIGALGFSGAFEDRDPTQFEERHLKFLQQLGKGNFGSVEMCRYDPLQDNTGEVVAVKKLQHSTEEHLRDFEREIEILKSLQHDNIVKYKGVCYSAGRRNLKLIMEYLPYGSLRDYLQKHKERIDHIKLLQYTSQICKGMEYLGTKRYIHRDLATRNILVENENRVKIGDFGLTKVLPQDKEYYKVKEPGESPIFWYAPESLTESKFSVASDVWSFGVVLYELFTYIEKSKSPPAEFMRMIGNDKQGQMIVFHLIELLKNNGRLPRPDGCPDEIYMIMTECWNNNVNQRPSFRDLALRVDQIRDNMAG

MERTK = MERTK (UniProt Q12866); test: as above
c-Abl (mouse) = test: as above
c-Src = test: as above
Grb2 SH2 = Grb2 SH2 (UniProt P62993); test: SH2 binding enrichment of the phosphorylated peptide, bacterial display (enrichment ratio); higher = better substrate or ligand; peptides without Tyr show the background
SHP2-C SH2 = test: as above
c-Src SH2 = test: as above
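Throughout, for SH2 binding enrichment of the phosphorylated peptide, bacterial display: peptide library displayed on the E. coli surface as eCPX fusions, selected cells deep-sequenced, score is each peptide's frequency after selection divided by its frequency in the input.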
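Throughout, for phosphorylation enrichment, bacterial display: 11-residue human phosphosite peptides and single-mutation variants displayed on the E. coli surface, counted by deep sequencing, each peptide's frequency after selection divided by its frequency in the unselected input library; frequency after pTyr selection over input frequency; kinase dosed for 20-30% of maximal phosphorylation in three min.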

Sequence of EPHB1 (P54762 whole entry, looked up): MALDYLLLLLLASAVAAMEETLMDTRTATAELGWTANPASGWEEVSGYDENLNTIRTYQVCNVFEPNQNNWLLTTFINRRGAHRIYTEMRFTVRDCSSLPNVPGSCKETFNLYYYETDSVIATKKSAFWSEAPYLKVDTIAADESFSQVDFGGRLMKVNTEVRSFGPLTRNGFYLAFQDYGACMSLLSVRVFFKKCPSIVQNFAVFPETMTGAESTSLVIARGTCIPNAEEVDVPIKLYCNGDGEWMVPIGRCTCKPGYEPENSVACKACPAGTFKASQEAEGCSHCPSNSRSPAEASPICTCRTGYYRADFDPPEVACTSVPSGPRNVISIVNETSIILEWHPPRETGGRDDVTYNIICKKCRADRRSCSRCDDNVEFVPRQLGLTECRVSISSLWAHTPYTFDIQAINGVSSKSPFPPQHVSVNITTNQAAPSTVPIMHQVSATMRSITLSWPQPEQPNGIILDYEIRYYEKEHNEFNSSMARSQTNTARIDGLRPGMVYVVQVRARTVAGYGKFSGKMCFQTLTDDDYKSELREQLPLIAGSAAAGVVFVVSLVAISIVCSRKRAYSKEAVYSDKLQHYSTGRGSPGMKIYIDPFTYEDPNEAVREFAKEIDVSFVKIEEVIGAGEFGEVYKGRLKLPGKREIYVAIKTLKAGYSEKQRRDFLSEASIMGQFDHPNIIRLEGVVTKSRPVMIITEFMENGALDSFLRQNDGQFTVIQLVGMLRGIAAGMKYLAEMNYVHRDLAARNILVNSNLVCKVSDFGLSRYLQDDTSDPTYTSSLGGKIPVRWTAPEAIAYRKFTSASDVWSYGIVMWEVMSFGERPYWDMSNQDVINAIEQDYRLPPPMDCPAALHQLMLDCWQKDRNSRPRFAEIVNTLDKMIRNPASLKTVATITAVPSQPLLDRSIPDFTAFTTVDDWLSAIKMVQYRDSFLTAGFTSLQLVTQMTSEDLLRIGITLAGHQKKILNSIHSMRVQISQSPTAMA
Sequence of EPHB2 (P29323 whole entry, looked up): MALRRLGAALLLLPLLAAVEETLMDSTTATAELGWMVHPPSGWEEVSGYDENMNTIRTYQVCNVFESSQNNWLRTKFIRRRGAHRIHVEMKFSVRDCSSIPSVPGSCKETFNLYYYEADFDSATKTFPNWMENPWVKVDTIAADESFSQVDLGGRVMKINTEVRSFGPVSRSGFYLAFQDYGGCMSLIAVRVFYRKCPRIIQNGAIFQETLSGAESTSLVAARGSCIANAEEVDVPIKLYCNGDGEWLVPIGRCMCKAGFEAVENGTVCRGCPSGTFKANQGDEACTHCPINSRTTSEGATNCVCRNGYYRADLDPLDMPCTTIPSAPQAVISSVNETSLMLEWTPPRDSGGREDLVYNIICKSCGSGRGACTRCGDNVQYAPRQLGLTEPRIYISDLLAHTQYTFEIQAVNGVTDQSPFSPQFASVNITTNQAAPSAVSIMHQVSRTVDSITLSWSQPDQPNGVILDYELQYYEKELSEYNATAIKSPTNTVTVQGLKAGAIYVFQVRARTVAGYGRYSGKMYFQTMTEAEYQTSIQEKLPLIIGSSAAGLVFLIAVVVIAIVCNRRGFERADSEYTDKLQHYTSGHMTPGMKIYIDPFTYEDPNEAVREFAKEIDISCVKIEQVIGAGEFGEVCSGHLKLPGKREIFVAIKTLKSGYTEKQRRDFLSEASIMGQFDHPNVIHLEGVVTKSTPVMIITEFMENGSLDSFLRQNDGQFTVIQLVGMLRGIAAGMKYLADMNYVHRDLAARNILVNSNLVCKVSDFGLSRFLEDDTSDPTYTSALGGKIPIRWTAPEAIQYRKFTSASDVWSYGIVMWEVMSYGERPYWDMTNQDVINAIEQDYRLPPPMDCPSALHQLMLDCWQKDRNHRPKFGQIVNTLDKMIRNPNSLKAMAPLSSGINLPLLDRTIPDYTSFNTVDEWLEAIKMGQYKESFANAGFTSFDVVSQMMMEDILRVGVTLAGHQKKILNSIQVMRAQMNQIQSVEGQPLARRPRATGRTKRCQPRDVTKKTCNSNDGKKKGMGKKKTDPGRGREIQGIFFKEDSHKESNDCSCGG

SH2 binding enrichment (Grb2 SH2)	SH2 binding enrichment (SHP2-C SH2)	SH2 binding enrichment (c-Src SH2)	Sequence	phosphorylation enrichment (AncSZ)	phosphorylation enrichment (EPHB1)	phosphorylation enrichment (EPHB2)	phosphorylation enrichment (FGFR1)	phosphorylation enrichment (FGFR3)	phosphorylation enrichment (Fer (mouse))	phosphorylation enrichment (Fes)	phosphorylation enrichment (Fyn)	phosphorylation enrichment (Hck)	phosphorylation enrichment (Jak2)	phosphorylation enrichment (MERTK)	phosphorylation enrichment (c-Abl (mouse))	phosphorylation enrichment (c-Src)
0.806	0.946	1.23	QMVGMYASSYM [AVPR2_Y124]	1.27	1.21	1.09	0.611	0.783	1.07	1.07	1.11	1.3	0.659	2.74	0.921	1.45
0.801	0.691	0.537	KALKQYRASPS [DDX27_Y763_G766S]	0.411	0.312	0.344	0.328	0.309	0.368	0.423	0.373	0.318	0.439	0.401	0.552	0.43
0.952	0.799	0.641	DAICYYRMENA [NPHS2_Y195]	2.23	0.866	0.795	7.73	6.5	0.736	1.44	1.34	1.11	6.63	1.28	1.03	3.12
0.799	0.451	0.723	SEELHYYVQNH [UQCRC2_Y207_F208Y]	2.04	0.89	0.788	3.68	4.09	0.954	1.62	0.633	0.732	1.68	2.86	2.09	1.48
0.667	0.656	0.378	NTFEKYLGEEF [TF_Y669_YF]	1.08	0.587	0.572	0.509	0.75	0.491	1.21	0.454	0.479	0.922	0.379	0.641	0.429
0.598	0.639	0.48	GEHSIYCTVNN [CD55_Y266]	1.55	6.56	5.39	0.955	1.07	5.03	1.73	5.28	5.61	1.22	2.08	1.98	4.66
0.744	0.613	0.444	LNPDGYKKAYE [CPXM2_Y427_E428K]	0.905	0.605	0.749	0.86	1.46	0.619	1.14	0.676	0.515	1	0.734	1.35	0.513
0.773	0.593	0.493	TLERHYKELQA [SPTBN2_Y834_E835K]	0.713	0.363	0.546	0.449	0.509	0.415	0.787	0.446	0.375	0.704	0.571	0.612	0.472
0.755	0.728	0.464	AKRKGYDMRVD [NEB_Y2770]	0.459	0.295	0.339	0.292	0.297	0.358	0.477	0.47	0.355	0.431	0.394	0.42	0.363
0.751	0.466	0.431	AGNPAYRSFSN [IL4R_Y497]	0.52	0.347	0.318	0.366	0.414	0.389	0.575	0.402	0.424	0.447	0.39	0.618	0.45
0.832	0.661	0.456	AGADGYGFLAP [FOXL2_Y186_YF]	0.846	0.391	0.508	0.652	0.694	0.611	0.737	0.517	0.71	0.857	0.618	0.698	0.797
0.576	0.547	0.447	GANFEYIIAEK [ECHS1_Y35]	0.911	0.501	0.455	0.523	0.594	0.406	0.862	0.479	0.553	0.883	0.513	0.544	0.48
1.53	1.84	1.11	VFDMLYQLANL [USP24_Y1087]	1.52	1.32	1.34	0.754	0.82	14.1	1.08	3	3.29	0.874	2.5	0.945	5.01
0.813	0.711	0.83	ENGPFYTSFPP [GDAP2_Y488_YF]	1.12	2.92	2.41	3.86	2.62	4.74	1.04	8.74	7.05	1.61	13.1	8.39	6.71
1.32	0.72	0.873	EFITRYIASLK [PSMA7_Y110_YF]	0.84	0.585	0.506	0.419	0.536	0.454	0.806	0.495	0.436	0.695	0.475	0.648	0.435
0.893	0.624	0.536	ALRASYTPSPA [ESS2_Y418]	0.448	0.352	0.34	0.366	0.389	0.367	0.471	0.332	0.333	0.294	0.326	0.329	0.369
0.765	0.75	0.528	DLDPNYVLSSR [CKM_Y125]	1.17	0.523	0.636	0.465	0.714	0.394	1.01	0.416	0.473	0.759	0.464	0.528	0.534
0.875	0.657	0.763	GIVEDYRPTFY [ACVRL1_Y421_P424T]	0.83	0.561	0.484	0.441	0.648	0.373	0.866	0.513	0.475	0.661	0.404	0.899	0.347
1.16	0.8	0.496	REVPVYTFSEP [FAM120B_Y368_D370Y_YF]	1.83	1.9	1.06	1.14	1.33	11.1	1.54	11.5	4.36	1.1	3.58	1.72	9.04
0.832	0.749	0.834	DNPAKYFILES [DPP10_Y512]	0.833	0.544	0.567	0.508	0.715	0.419	1.04	0.485	0.51	0.955	0.542	0.558	0.442
0.686	0.585	0.485	NFFEFYVDDPL [GCHFR_Y48_P53L_YF]	1.09	0.773	0.52	0.501	0.874	0.428	1.11	0.436	0.439	1.07	0.413	0.78	0.489
0.711	0.88	0.413	DKGTLYIVEQI [PLBD1_Y375]	0.985	0.579	0.525	0.423	0.703	0.463	1.09	0.492	0.413	1.03	0.355	0.737	0.383
0.838	0.73	0.466	SILTVYSKDNF [PANK2_Y400_A398T_YF]	0.814	0.549	0.514	0.572	0.627	0.481	0.894	0.516	0.548	0.907	0.454	0.456	0.6
1.44	1.19	0.711	GDLTDYLMKIL [ACTA1_Y190_R185G]	0.788	0.508	0.476	0.437	0.509	0.42	0.821	0.397	0.453	0.648	0.355	0.56	0.323
0.918	0.765	0.61	RQQEVYLLYKQ [RARRES1_Y159_D158V]	1.5	0.757	0.855	0.672	1.11	0.611	1.98	0.919	0.877	1.34	0.842	1.13	1.41
0.705	0.858	0.516	FFCRWYRNRKS [EREG_Y144_YF]	0.442	0.421	0.514	0.463	0.409	0.312	0.453	0.563	0.326	0.433	0.433	0.421	0.51
0.895	11.3	0.987	HLPAGYIIPLQ [GAA_Y822_R819P]	0.638	0.383	0.28	0.443	0.444	0.297	0.764	0.388	0.491	0.608	0.542	0.363	0.492
0.887	0.851	0.499	QSMEPYTKQQL [STAT3_Y640_V637M]	0.851	0.454	0.66	0.51	0.692	0.546	1.02	0.462	0.696	0.736	0.579	0.445	0.401

Sequence	SH2 binding enrichment (Grb2 SH2)	SH2 binding enrichment (SHP2-C SH2)	SH2 binding enrichment (c-Src SH2)	phosphorylation enrichment (AncSZ)	phosphorylation enrichment (EPHB1)	phosphorylation enrichment (EPHB2)	phosphorylation enrichment (FGFR1)	phosphorylation enrichment (FGFR3)	phosphorylation enrichment (Fer (mouse))	phosphorylation enrichment (Fes)	phosphorylation enrichment (Fyn)	phosphorylation enrichment (Hck)	phosphorylation enrichment (Jak2)	phosphorylation enrichment (MERTK)	phosphorylation enrichment (c-Abl (mouse))	phosphorylation enrichment (c-Src)
KYLENYLNCLL [PLD2_Y169_R172C]	0.983	0.835	0.747	1.1	1.18	0.776	0.989	1.05	0.707	1.47	0.476	0.456	1.28	0.52	1.03	0.498
